Reference: the supplement of paper PMC12338614
± gives the uncertainty stated by the source.

B1: library; numbered along this chain (parent)
chain: MEVVDPQQLGMFTEGELMSVGMDTFIHRIDSTEVIYQPRRKRAKLIGKYLMGDLLGEGSYGKVKEVLDSETLCRRAVKILKKKKLRRIPNGEANVKKEIQLLRRLRHKNVIQLVDVLYNEEKQKMYMVMEYCVCGMQEMLDSVPEKRFPVCQAHGYFCQLIDGLEYLHSQGIVHKDIKPGNLLLTTGGTLKISDLGVAEALHPFAADDTCRTSQGSPAFQPPEIANGLDTFSGFKVDIWSAGVTLYNITTGLYPFEGDNIYKLFENIGKGSYAIPGDCGPPLSDLLKGMLEYEPAKRFSIRQIRQHSWFRKKHPPAEAPVPIPPSPDTKDRWRSMTVVPYLEDLHGADEDEDLFDIEDDIIYTQDFTVPGQVPEEEASHNGQRRGLPKAVCMNGTEAAQLSTKSRAEGRAPNPARKACSASSKIRRLSACKQQ

Variants of: B1
Experiment: STK11 functional score (HeLa growth suppression), rescaled enrichment; synonymous median = 1, nonsense median = 0 (normalised score)
Conditions: with HeLa; variant type: missense
Protocol: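 Deep mutational scan (TileSeq/POPCode codon randomisation) of full-length codon-optimised STK11 cDNA integrated at a Bxb1 landing pad (AAVS1) in HeLa cells. Restoring functional STK11 suppresses HeLa proliferation. Variant frequencies were measured by NGS before and after about two weeks of growth. The error-corrected enrichment log-ratio was rescaled so that synonymous median = 1 and nonsense median = 0, scores above 1 were compressed, and codon-level and three biological replicate scores were combined; error is the bootstrapped standard error. Scale: synonymous median = 1, nonsense median = 0; below 0.5 = damaging.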

Variant | STK11 functional score
D348P | 1.59 ± 0.14
Q214C | 0.896 ± 0.11
S19H | 0.00479 ± 0.13
E120R | 0.779 ± 0.085
E138R | -0.217 ± 0.089
E138Y | 1.08 ± 0.077
S378I | 1.26 ± 0.39
S378A | 1.44 ± 0.19
L160S | 0.508 ± 0.1
L160W | 0.0949 ± 0.08
L160I | 1.17 ± 0.12
P221S | 1.07 ± 0.22
D53H | 1.23 ± 0.18
E349L | 1.47 ± 0.14
R40V | 1.64 ± 0.25
E293M | 0.995 ± 0.14
K146G | 0.814 ± 0.28
P315D | 1.51 ± 0.16
P315M | 1.6 ± 0.19
Q159I | 0.332 ± 0.27
Q159K | 0.6 ± 0.18
Q159P | 0.757 ± 0.17
C391E | 1.58 ± 0.28
D365Y | 1.38 ± 0.14

Variant | STK11 functional score
A389L | 1.54 ± 0.16
A389I | 1.59 ± 0.24
G279Q | 1.32 ± 0.16
F234C | 1.05 ± 0.39
P339W | 1.6 ± 0.17
P339S | 1.42 ± 0.2
N109G | 0.374 ± 0.15
N109A | 0.625 ± 0.74
D350W | 1.6 ± 0.19
G155A | 1.27 ± 0.57
I46G | 0.857 ± 0.11
K178F | 0.35 ± 0.048
K178R | 0.681 ± 0.13
K178V | 0.434 ± 0.32
R147T | -0.149 ± 0.087
G58C | 0.374 ± 0.095
E357M | 1.52 ± 0.29
D355G | 1.63 ± 0.25
I267A | 1 ± 0.34
E376V | 1.07 ± 0.15
V128I | 1.63 ± 0.36
A295I | 1.35 ± 0.48
A295L | 0.756 ± 0.55
M129V | 0.303 ± 0.084

Variant | STK11 functional score
R405M | 1.6 ± 0.2
R405S | 1.54 ± 0.37
L263F | 0.857 ± 0.29
S307L | 1.47 ± 0.1
S307I | 1.02 ± 0.091
D277H | 1.36 ± 0.54
Y131E | 0.174 ± 0.082
Y131D | 0.0798 ± 0.094
P144M | 1.17 ± 0.64
V372N | 1.54 ± 0.25
V372E | 1.23 ± 0.38
S404V | 1.53 ± 0.27
M289L | 0.831 ± 0.11
M289Q | 0.0869 ± 0.082
H306G | 0.475 ± 0.077
G180V | 0.816 ± 0.089
I172M | 0.35 ± 0.093
W308V | -0.266 ± 0.088
P294R | 0.705 ± 0.19
P294L | 0.297 ± 0.13
R310G | 0.764 ± 0.2
G370Q | 1.55 ± 0.18
R426I | 1.15 ± 0.49
R426A | 0.525 ± 0.27

Variant | STK11 functional score
R106Y | 1.64 ± 0.16
R106H | 1.62 ± 0.16
A406D | 1.4 ± 0.36
F219W | 1.49 ± 0.11
F219Q | 1.57 ± 0.25
V110W | 0.328 ± 0.38
V110M | 0.358 ± 0.072
V110A | 0.184 ± 0.078
T328N | 0.554 ± 0.47
S232C | 1.17 ± 0.22
S232W | 0.692 ± 0.097
K124I | 1.51 ± 0.15
D327G | 0.999 ± 0.22
P275L | 0.807 ± 0.099
T402K | 1.3 ± 0.1
T402W | 1.44 ± 0.23
T209L | 1 ± 0.21
V3D | -0.174 ± 0.11
V3L | 0.558 ± 0.13
G10M | 1.51 ± 0.42
C278T | 1.22 ± 0.19
C278Q | 0.612 ± 0.12
C278M | 1.37 ± 0.14
C278R | 1.51 ± 0.28

Variant | STK11 functional score
P222L | 0.281 ± 0.091
P222F | 0.44 ± 0.099
P222N | 1.61 ± 0.13
E57Q | 1.06 ± 0.23
S240D | 0.841 ± 0.36
M11K | 1.32 ± 0.44
N259G | 0.492 ± 0.49
L386I | 1.14 ± 0.22
L386E | 1.55 ± 0.22
S59V | 1.55 ± 0.22
I260V | 1.07 ± 0.18
G257I | 1.66 ± 0.44
G257E | 1.32 ± 0.47
R384Q | 1.62 ± 0.32
K48P | 1.41 ± 0.45
D176E | 0.211 ± 0.1
D176S | -0.0857 ± 0.087
D176A | -0.0851 ± 0.1
S421L | 1.62 ± 0.27
P179A | 0.764 ± 0.091
E223V | 0.469 ± 0.15
M51I | 1.16 ± 0.4
K64G | 0.436 ± 0.29
K64L | 1.54 ± 0.26

Variant | STK11 functional score
K81W | 0.565 ± 0.079
S422F | 1.4 ± 0.44
S422Y | 1.54 ± 0.15
M139T | 1.18 ± 0.53
M139Q | 1.11 ± 0.32
A417H | 0.849 ± 0.67
G15Y | 1.58 ± 0.29
G15D | 1.72 ± 0.12
D284T | 0.863 ± 0.19
P324R | 1.17 ± 0.15
P324D | 1.57 ± 0.18
Q364F | 1.28 ± 0.27
Q364H | 0.685 ± 0.66
Q364C | 1.28 ± 0.32
G188L | 0.732 ± 0.17
G188P | 1.36 ± 0.34
A414S | 1.57 ± 0.18
G346Q | 1.61 ± 0.14
G346M | 1.58 ± 0.15
S193F | -0.0251 ± 0.091
S193M | 0.111 ± 0.094
Q382F | 1.14 ± 0.28
T367F | 1.36 ± 0.18
T367Y | 1.54 ± 0.2

Variant | STK11 functional score
T367A | 1.39 ± 0.11
E342N | 1.4 ± 0.14
D194R | -0.0399 ± 0.12
D194L | -0.0619 ± 0.096
V338A | 1.56 ± 0.27
V338L | 1.39 ± 0.22
I300S | 0.391 ± 0.083
I300A | 1.51 ± 0.15
I300G | 0.368 ± 0.12
K83Y | 1.15 ± 0.15
M335E | 1.33 ± 0.16
Q100D | 1.57 ± 0.19
Q100A | 0.571 ± 0.42
H168C | 0.168 ± 0.32
Q37A | 1.34 ± 0.51
Q37R | 1.34 ± 0.29
V368D | 1.53 ± 0.14
V368P | 1.46 ± 0.19
A398V | 1.01 ± 0.2
A398G | 1.1 ± 0.38
Y156P | 0.418 ± 0.19
P413T | 1.44 ± 0.24
H313P | 0.624 ± 0.47
